Reference: US20260216354A1, “ANTI-CMET ANTIBODY, ANTIBODY-DRUG CONJUGATE, AND PREPARATION METHOD THEREFOR AND USE THEREOF” (MEDILINK THERAPEUTICS (SUZHOU) CO., LTD., priority 2022, published 2026)

What was measured:
[1] = target: human c-Met on tumor cells (MKN45, NCI-H358, NCI-H69, LS1034, NCI-H716, MDA-MB-468) (human) (UniProt P08581); experiment: flow cytometry on LS1034 cells
[2] = target: human c-Met on tumor cells (MKN45, NCI-H358, NCI-H69, LS1034, NCI-H716, MDA-MB-468) (human) (UniProt P08581); experiment: flow cytometry on NCI-H69 cells
[3] = target: human c-Met on tumor cells (MKN45, NCI-H358, NCI-H69, LS1034, NCI-H716, MDA-MB-468) (human) (UniProt P08581); experiment: flow cytometry on NCI-H358 cells
[4] = target: h.cMet-ECD-His (Human HGF R/c-MET Protein, His Tag, Acrobiosystems MET-H5227) (human) (UniProt P08581); experiment: ELISA, h.cMet-ECD-His captured by anti-His-Rabbit Fc
Sequence of h.cMet-ECD-His (Human HGF R/c-MET Protein, His Tag, Acrobiosystems MET-H5227) (human) (P08581 25-932): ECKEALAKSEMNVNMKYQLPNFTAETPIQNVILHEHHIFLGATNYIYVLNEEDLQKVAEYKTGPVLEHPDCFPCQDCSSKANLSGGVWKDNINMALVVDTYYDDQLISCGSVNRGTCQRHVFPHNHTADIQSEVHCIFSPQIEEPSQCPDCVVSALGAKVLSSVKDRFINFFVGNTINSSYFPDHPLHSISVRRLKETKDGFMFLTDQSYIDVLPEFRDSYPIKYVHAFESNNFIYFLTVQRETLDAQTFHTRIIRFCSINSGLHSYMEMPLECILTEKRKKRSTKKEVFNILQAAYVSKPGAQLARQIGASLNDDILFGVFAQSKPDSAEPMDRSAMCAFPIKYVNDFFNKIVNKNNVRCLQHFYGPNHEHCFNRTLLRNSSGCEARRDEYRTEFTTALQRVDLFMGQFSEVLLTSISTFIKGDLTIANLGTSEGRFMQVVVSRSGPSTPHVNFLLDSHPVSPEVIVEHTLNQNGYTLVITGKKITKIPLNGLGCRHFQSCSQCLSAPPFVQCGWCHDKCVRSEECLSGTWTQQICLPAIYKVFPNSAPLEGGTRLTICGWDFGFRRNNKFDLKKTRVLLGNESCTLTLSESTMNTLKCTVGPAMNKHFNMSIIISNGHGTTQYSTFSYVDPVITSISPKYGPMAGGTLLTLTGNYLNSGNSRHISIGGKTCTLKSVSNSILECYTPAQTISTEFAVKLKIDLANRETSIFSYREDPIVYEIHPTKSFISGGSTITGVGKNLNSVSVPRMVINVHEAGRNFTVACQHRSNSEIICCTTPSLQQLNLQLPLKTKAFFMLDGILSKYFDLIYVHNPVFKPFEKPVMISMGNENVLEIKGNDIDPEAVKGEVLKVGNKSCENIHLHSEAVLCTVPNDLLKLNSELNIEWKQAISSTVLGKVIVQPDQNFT

[5] = target: human c-Met on tumor cells (MKN45, NCI-H358, NCI-H69, LS1034, NCI-H716, MDA-MB-468) (human) (UniProt P08581); experiment: flow cytometry on NCI-H716 cells

Sequence of human c-Met on tumor cells (MKN45, NCI-H358, NCI-H69, LS1034, NCI-H716, MDA-MB-468) (human) (P08581 25-1390): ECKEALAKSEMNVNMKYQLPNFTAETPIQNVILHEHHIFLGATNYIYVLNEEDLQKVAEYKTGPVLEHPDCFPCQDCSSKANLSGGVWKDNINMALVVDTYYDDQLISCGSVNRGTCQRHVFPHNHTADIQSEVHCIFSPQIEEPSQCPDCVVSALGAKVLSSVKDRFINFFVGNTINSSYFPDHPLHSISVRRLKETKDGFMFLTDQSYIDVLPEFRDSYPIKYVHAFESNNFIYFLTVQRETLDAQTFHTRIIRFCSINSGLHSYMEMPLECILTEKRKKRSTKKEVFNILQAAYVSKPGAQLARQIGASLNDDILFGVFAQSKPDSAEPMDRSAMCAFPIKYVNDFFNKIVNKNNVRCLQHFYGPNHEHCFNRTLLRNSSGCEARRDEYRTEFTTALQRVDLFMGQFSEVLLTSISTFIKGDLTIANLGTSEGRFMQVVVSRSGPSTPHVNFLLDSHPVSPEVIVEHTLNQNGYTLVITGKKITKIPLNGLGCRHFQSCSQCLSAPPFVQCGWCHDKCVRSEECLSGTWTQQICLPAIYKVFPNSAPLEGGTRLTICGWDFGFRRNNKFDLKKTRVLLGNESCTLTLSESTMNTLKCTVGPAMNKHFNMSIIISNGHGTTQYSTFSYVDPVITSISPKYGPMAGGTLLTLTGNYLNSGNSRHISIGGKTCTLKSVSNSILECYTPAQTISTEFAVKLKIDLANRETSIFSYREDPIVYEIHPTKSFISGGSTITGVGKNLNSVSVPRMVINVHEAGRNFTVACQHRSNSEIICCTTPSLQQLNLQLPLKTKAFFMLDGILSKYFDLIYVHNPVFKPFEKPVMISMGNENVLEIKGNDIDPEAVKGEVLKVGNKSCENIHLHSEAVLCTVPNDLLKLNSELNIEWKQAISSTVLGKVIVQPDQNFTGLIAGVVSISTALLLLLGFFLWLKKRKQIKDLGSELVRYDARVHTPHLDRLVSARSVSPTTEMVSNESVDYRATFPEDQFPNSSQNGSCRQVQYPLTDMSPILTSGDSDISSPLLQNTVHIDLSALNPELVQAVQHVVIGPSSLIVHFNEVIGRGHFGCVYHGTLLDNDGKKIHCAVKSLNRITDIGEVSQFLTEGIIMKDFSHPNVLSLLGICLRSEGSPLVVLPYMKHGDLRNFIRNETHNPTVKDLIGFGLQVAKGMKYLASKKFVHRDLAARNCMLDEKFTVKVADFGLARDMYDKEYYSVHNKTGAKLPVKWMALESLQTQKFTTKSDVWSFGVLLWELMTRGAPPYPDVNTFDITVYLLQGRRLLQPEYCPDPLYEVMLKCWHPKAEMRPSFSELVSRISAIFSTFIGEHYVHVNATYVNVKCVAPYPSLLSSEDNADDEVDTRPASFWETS

EC50 [1] [nM] | Maximum signal value [1] | EC50 [2] [nM] | Maximum signal value [2] | EC50 [3] [nM] | Maximum signal value [3] | EC50 [4] [µg/mL] | EC50 [5] [nM] | Maximum signal value [5] | Binder
0.852 | 8960 | 0.212 | 8210 | 0.917 | 32400 | 2.43 |  |  | ABT700-vc-MMAE (DAR9.7) (antibody, INN chains, looked up, V domains shown, vc-MMAE, DAR 9.7) VH: QVQLVQSGAEVKKPGASVKVSCKASGYIFTAYTMHWVRQAPGQGLEWMGWIKPNNGLANYAQKFQGRVTMTRDTSISTAYMELSRLRSDDTAVYYCARSEITTEFDYWGQGTLVTVSS VL: DIVMTQSPDSLAVSLGERATINCKSSESVDSYANSFLHWYQQKPGQPPKLLIYRASTRESGVPDRFSGSGSGTDFTLTISSLQAEDVAVYYCQQSKEDPLTFGGGTKVEIK
 |  |  |  |  |  |  | 11.6 | 3740 | ABT700-Vc-MMAE (DAR4) (antibody, INN chains, looked up, V domains shown, vc-MMAE, DAR 4) VH: QVQLVQSGAEVKKPGASVKVSCKASGYIFTAYTMHWVRQAPGQGLEWMGWIKPNNGLANYAQKFQGRVTMTRDTSISTAYMELSRLRSDDTAVYYCARSEITTEFDYWGQGTLVTVSS VL: DIVMTQSPDSLAVSLGERATINCKSSESVDSYANSFLHWYQQKPGQPPKLLIYRASTRESGVPDRFSGSGSGTDFTLTISSLQAEDVAVYYCQQSKEDPLTFGGGTKVEIK
